According to paper PMC7440162 (Cell, 2020):

Key:
[1] = target: T1, PTPRD ECD-Fc (human, UniProt P23468 21-1265); assay: ELISA
T1 sequence: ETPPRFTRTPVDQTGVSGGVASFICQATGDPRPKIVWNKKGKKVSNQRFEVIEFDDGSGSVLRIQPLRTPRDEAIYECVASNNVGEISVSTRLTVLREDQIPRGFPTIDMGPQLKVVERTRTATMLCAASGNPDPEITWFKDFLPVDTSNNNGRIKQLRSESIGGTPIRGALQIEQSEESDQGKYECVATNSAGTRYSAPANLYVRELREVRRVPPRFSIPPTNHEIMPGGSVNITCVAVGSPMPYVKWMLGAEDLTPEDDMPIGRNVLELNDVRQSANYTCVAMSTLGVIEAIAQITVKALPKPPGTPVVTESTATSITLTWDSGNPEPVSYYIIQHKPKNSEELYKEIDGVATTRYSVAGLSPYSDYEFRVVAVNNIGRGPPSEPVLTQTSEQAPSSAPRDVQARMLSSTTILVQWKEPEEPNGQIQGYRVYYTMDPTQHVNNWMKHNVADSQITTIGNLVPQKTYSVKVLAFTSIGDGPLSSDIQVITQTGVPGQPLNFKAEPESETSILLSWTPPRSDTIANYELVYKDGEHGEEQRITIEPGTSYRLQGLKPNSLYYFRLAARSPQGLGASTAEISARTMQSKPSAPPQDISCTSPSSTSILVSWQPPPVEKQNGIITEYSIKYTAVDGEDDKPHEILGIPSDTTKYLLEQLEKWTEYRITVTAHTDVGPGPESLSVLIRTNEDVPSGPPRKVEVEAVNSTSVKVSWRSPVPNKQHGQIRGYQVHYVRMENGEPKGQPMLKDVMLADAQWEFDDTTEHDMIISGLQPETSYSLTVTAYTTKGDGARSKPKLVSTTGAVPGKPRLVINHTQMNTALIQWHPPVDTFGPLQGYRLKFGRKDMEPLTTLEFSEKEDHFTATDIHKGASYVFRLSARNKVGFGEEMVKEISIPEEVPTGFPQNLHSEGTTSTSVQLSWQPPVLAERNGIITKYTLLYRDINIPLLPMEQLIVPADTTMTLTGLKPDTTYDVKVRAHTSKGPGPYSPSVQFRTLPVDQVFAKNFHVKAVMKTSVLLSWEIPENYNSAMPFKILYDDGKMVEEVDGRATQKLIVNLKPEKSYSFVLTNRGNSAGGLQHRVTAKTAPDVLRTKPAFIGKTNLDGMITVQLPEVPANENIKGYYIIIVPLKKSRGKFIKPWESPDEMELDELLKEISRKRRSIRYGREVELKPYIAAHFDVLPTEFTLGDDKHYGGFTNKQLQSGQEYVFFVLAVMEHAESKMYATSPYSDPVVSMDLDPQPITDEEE

[2] = target: T2, PTPRF ECD-Fc (human, UniProt P10586 30-1263); assay: SPR
T2 sequence: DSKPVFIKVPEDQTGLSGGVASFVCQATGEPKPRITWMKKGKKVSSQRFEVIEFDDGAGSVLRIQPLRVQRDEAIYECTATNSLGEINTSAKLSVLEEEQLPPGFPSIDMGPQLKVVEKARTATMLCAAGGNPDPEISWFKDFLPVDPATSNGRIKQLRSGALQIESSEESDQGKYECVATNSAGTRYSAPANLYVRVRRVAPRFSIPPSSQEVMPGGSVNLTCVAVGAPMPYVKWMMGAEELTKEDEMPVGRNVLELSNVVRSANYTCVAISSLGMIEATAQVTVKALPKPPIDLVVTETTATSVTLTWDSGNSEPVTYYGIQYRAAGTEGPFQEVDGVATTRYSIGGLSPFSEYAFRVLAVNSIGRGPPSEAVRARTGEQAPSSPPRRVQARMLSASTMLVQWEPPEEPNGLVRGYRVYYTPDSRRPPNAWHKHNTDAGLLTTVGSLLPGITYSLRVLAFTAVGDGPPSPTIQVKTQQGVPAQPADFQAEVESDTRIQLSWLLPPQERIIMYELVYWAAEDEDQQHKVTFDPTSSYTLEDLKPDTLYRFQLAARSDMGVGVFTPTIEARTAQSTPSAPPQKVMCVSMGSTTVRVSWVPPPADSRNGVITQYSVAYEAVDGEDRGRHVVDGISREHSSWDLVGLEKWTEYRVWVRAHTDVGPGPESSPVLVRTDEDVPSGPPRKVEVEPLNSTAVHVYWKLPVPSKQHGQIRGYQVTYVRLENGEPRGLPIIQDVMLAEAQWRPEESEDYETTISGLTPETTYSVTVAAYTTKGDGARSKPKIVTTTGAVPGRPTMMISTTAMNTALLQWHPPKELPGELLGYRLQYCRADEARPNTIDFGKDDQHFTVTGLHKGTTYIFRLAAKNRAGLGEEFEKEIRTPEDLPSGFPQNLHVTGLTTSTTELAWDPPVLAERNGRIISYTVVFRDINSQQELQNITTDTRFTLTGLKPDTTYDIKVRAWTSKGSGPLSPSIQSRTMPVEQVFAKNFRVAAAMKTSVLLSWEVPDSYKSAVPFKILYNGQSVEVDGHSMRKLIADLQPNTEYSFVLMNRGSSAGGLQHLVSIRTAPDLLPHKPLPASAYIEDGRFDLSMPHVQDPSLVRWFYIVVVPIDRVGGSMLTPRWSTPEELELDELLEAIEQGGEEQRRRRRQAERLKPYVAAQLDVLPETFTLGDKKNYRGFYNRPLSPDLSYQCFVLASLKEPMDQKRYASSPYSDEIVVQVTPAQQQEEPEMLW

[3] = target: T3, PTPRS ECD-Fc (human, UniProt Q13332 30-1282); assay: SPR
T3 sequence: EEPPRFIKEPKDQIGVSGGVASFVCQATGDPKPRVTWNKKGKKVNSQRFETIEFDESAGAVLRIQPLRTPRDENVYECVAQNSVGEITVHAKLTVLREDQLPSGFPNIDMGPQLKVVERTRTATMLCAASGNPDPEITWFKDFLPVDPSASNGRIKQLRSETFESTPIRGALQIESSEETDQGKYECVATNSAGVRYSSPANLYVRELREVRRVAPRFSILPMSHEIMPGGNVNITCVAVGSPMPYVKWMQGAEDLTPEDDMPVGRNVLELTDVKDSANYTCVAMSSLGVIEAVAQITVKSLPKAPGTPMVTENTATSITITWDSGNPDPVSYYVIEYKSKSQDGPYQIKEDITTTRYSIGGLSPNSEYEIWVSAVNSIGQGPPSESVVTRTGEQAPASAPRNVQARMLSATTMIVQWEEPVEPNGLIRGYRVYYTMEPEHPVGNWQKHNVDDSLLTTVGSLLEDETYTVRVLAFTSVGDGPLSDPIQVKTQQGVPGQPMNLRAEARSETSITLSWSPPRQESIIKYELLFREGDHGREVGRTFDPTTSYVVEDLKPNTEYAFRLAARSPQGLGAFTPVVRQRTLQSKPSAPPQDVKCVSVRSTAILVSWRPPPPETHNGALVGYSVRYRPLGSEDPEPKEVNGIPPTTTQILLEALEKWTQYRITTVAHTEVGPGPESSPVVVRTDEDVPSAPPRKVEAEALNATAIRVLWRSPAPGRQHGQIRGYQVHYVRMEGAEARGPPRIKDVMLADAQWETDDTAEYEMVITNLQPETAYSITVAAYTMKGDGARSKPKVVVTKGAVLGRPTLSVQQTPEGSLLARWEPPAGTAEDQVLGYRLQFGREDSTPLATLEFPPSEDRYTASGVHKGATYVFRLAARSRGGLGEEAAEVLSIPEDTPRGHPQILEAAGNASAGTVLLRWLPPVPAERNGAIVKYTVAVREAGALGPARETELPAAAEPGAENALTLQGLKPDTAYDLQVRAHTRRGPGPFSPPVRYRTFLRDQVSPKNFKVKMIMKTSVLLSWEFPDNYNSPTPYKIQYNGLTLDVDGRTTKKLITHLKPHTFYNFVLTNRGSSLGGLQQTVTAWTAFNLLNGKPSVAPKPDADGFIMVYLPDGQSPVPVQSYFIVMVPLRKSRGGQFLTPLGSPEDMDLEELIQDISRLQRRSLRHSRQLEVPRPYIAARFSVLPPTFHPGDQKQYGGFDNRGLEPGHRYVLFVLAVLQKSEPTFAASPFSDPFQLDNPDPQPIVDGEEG

- binding result [1]: binds
- binding result [2]: binds
- binding result [3]: binds
B1: SALM2 ECD-Fc (Fc fusion)
chain: QPCPGRCICQNVAPTLTMLCAKTGLLFVPPAIDRRVVELRLTDNFIAAVRRRDFANMTSLVHLTLSRNTIGQVAAGAFADLRALRALHLDSNRLAEVRGDQLRGLGNLRHLILGNNQIRRVESAAFDAFLSTVEDLDLSYNNLEALPWEAVGQMVNLNTLTLDHNLIDHIAEGTFVQLHKLVRLDMTSNRLHKLPPDGLFLRSQGTGPKPPTPLTVSFGGNPLHCNCELLWLRRLTREDDLETCATPEHLTDRYFWSIPEEEFLCEPPLITRQAGGRALVVEGQAVSLRCRAVGDPEPVVHWVAPDGRLLGNSSRTRVRGDGTLDVTITTLRDSGTFTCIASNAAGEATAPVEVCVVPLPLMAPPPAAPPPLTEPGSSDIATPGRPGANDSAAERRLVAAELTSNSVLIRWPAQRPVPGIRMYQVQYNSSVDDSLVYRMIPSTSQTFLVNDLAAGRAYDLCVLAVYDDGATALPATRVVGCVQFTTAGDPAPCRPLRAHFLGGTM
modifications: biotin on the AviTag (as SPR ligand)
